Data on one molecule can be found in publication PMC6650547 (2019).

In this assay the target is T1, His-SUDV-NP(34-367) (Sudan virus (SUDV), strain Boniface, UniProt Q9QP77 34-367).
T1 chain: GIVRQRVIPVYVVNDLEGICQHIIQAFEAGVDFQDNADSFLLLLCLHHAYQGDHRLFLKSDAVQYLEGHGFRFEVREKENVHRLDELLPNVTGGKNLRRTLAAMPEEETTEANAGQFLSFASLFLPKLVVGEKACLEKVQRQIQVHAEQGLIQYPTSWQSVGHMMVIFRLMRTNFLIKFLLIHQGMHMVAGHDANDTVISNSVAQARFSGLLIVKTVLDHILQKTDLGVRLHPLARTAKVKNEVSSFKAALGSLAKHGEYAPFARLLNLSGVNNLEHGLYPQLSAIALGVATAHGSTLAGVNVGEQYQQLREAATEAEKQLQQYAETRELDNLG
As to the kind of experiment: BLI. (BLI is a label-free optical method that tracks binding on a fibre tip over time.)

In general, koff refers to the rate constant with which the complex falls apart. Take MQQDRTYRHHGPEVSGWFSEQLMTGKIPLTEVFV [SUDV VP35 wild-type chaperone domain peptide (residues 1 to 34)]: the koff was 0.00583 s⁻¹.
